Data on 37 variants can be found in the Human Domainome abundance scans (Beltran et al. 2025).

± gives the uncertainty stated by the source.

B1: Peroxisome proliferator-activated receptor delta, residues 71 to 145; numbered along this chain, Q03181 (parent)
chain: NMECRVCGDKASGFHYGVHACEGCKGFFRRTIRMKLEYEKCERSCKIQKKNRNKCQYCRFQKCLALGMSHNAIRF

The variants in the series derive from B1. Nature of the series: abundance fitness (aPCA) (normalised: wild type 0, dead -1); higher = more abundant; growth selection in yeast, the domain comes from the species named. Conditions: Homo sapiens.
With NMECRVQGDKASGFHYGVHACEGCKGFFRRTIRMKLEYEKCERSCKIQKKNRNKCQYCRFQKCLALGMSHNAIRF, the abundance fitness is -0.584 ± 0.11.
Consider NMECRVMGDKASGFHYGVHACEGCKGFFRRTIRMKLEYEKCERSCKIQKKNRNKCQYCRFQKCLALGMSHNAIRF, for which the abundance fitness is -0.984 ± 0.18.
Regarding NMECRVPGDKASGFHYGVHACEGCKGFFRRTIRMKLEYEKCERSCKIQKKNRNKCQYCRFQKCLALGMSHNAIRF, the abundance fitness was -0.759 ± 0.14.
For NMECRVWGDKASGFHYGVHACEGCKGFFRRTIRMKLEYEKCERSCKIQKKNRNKCQYCRFQKCLALGMSHNAIRF the value was -0.895 ± 0.15; for NMECRVRGDKASGFHYGVHACEGCKGFFRRTIRMKLEYEKCERSCKIQKKNRNKCQYCRFQKCLALGMSHNAIRF, -0.793 ± 0.077.
The result for NMECRVGGDKASGFHYGVHACEGCKGFFRRTIRMKLEYEKCERSCKIQKKNRNKCQYCRFQKCLALGMSHNAIRF reads -0.504 ± 0.06; that for NMECRVSGDKASGFHYGVHACEGCKGFFRRTIRMKLEYEKCERSCKIQKKNRNKCQYCRFQKCLALGMSHNAIRF, -0.575 ± 0.067; that for NMECRVFGDKASGFHYGVHACEGCKGFFRRTIRMKLEYEKCERSCKIQKKNRNKCQYCRFQKCLALGMSHNAIRF, -0.867 ± 0.25.
For NMECRVLGDKASGFHYGVHACEGCKGFFRRTIRMKLEYEKCERSCKIQKKNRNKCQYCRFQKCLALGMSHNAIRF the value was -0.782 ± 0.089; for NMECRVYGDKASGFHYGVHACEGCKGFFRRTIRMKLEYEKCERSCKIQKKNRNKCQYCRFQKCLALGMSHNAIRF, -0.673 ± 0.14; for NMECRVDGDKASGFHYGVHACEGCKGFFRRTIRMKLEYEKCERSCKIQKKNRNKCQYCRFQKCLALGMSHNAIRF, -0.952 ± 0.34.
For the variant NMECRVNGDKASGFHYGVHACEGCKGFFRRTIRMKLEYEKCERSCKIQKKNRNKCQYCRFQKCLALGMSHNAIRF, the abundance fitness was -0.412 ± 0.11.
The result for NMECRVAGDKASGFHYGVHACEGCKGFFRRTIRMKLEYEKCERSCKIQKKNRNKCQYCRFQKCLALGMSHNAIRF reads -0.66 ± 0.11; that for NMECRVEGDKASGFHYGVHACEGCKGFFRRTIRMKLEYEKCERSCKIQKKNRNKCQYCRFQKCLALGMSHNAIRF, -0.656 ± 0.099; that for NMECRVHGDKASGFHYGVHACEGCKGFFRRTIRMKLEYEKCERSCKIQKKNRNKCQYCRFQKCLALGMSHNAIRF, -0.21 ± 0.14.
The result for NMECRVIGDKASGFHYGVHACEGCKGFFRRTIRMKLEYEKCERSCKIQKKNRNKCQYCRFQKCLALGMSHNAIRF reads -0.877 ± 0.22; that for NMECRVKGDKASGFHYGVHACEGCKGFFRRTIRMKLEYEKCERSCKIQKKNRNKCQYCRFQKCLALGMSHNAIRF, -0.63 ± 0.13; that for NMECRVTGDKASGFHYGVHACEGCKGFFRRTIRMKLEYEKCERSCKIQKKNRNKCQYCRFQKCLALGMSHNAIRF, -0.862 ± 0.13.
The result for NMECRPCGDKASGFHYGVHACEGCKGFFRRTIRMKLEYEKCERSCKIQKKNRNKCQYCRFQKCLALGMSHNAIRF reads -0.923 ± 0.12; that for NMECRYCGDKASGFHYGVHACEGCKGFFRRTIRMKLEYEKCERSCKIQKKNRNKCQYCRFQKCLALGMSHNAIRF, -0.748 ± 0.17.
NMECRICGDKASGFHYGVHACEGCKGFFRRTIRMKLEYEKCERSCKIQKKNRNKCQYCRFQKCLALGMSHNAIRF: the abundance fitness was 0.059 ± 0.069.
The result for NMECRKCGDKASGFHYGVHACEGCKGFFRRTIRMKLEYEKCERSCKIQKKNRNKCQYCRFQKCLALGMSHNAIRF reads -0.745 ± 0.14; that for NMECRLCGDKASGFHYGVHACEGCKGFFRRTIRMKLEYEKCERSCKIQKKNRNKCQYCRFQKCLALGMSHNAIRF, -0.614 ± 0.067; that for NMECRTCGDKASGFHYGVHACEGCKGFFRRTIRMKLEYEKCERSCKIQKKNRNKCQYCRFQKCLALGMSHNAIRF, -1.18 ± 0.19.
As to NMECRFCGDKASGFHYGVHACEGCKGFFRRTIRMKLEYEKCERSCKIQKKNRNKCQYCRFQKCLALGMSHNAIRF, the abundance fitness is -0.547 ± 0.14.
For NMECRSCGDKASGFHYGVHACEGCKGFFRRTIRMKLEYEKCERSCKIQKKNRNKCQYCRFQKCLALGMSHNAIRF the value was -1.07 ± 0.14.
For NMECRGCGDKASGFHYGVHACEGCKGFFRRTIRMKLEYEKCERSCKIQKKNRNKCQYCRFQKCLALGMSHNAIRF, the abundance fitness is -0.841 ± 0.079.
Turning to NMECRECGDKASGFHYGVHACEGCKGFFRRTIRMKLEYEKCERSCKIQKKNRNKCQYCRFQKCLALGMSHNAIRF, the abundance fitness was -0.561 ± 0.11.
The result for NMECRDCGDKASGFHYGVHACEGCKGFFRRTIRMKLEYEKCERSCKIQKKNRNKCQYCRFQKCLALGMSHNAIRF reads -0.823 ± 0.19.
For NMECRACGDKASGFHYGVHACEGCKGFFRRTIRMKLEYEKCERSCKIQKKNRNKCQYCRFQKCLALGMSHNAIRF, the abundance fitness is -0.619 ± 0.07.
For NMECRHCGDKASGFHYGVHACEGCKGFFRRTIRMKLEYEKCERSCKIQKKNRNKCQYCRFQKCLALGMSHNAIRF the value was -0.914 ± 0.32.
Take NMECRRCGDKASGFHYGVHACEGCKGFFRRTIRMKLEYEKCERSCKIQKKNRNKCQYCRFQKCLALGMSHNAIRF: the abundance fitness is -0.839 ± 0.072.
The result for NMECRMCGDKASGFHYGVHACEGCKGFFRRTIRMKLEYEKCERSCKIQKKNRNKCQYCRFQKCLALGMSHNAIRF reads -0.674 ± 0.12; that for NMECRCCGDKASGFHYGVHACEGCKGFFRRTIRMKLEYEKCERSCKIQKKNRNKCQYCRFQKCLALGMSHNAIRF, -0.873 ± 0.19; that for NMECRWCGDKASGFHYGVHACEGCKGFFRRTIRMKLEYEKCERSCKIQKKNRNKCQYCRFQKCLALGMSHNAIRF, -0.934 ± 0.14.
Consider NMECRQCGDKASGFHYGVHACEGCKGFFRRTIRMKLEYEKCERSCKIQKKNRNKCQYCRFQKCLALGMSHNAIRF, for which the abundance fitness was -0.968 ± 0.2.
The result for NMECRNCGDKASGFHYGVHACEGCKGFFRRTIRMKLEYEKCERSCKIQKKNRNKCQYCRFQKCLALGMSHNAIRF reads -0.624 ± 0.17.
